The target of assay [1] is T1, CD91, cell-surface receptor of eHSP90α, on PANC-1 cells (UniProt Q07954 20-4544, limits assumed).
T1 construct: whole, on cells; Endogenous receptor on human PANC-1 cells, detected by proximity ligation assay; also called CD91/LRP-1
The experiment in a line: proximity ligation assay (PLA) in PANC-1 cells, 15 µg/ml rHSP90α, with or without 10 µg/ml control IgG, Clone-2 or Clone-6 [d]. As for the experimental part:
PANC-1 cells seeded onto glass coverslips at a density of 2×10⁵ cells per 22×22-mm coverslip were incubated 16 h with 0.5% serum-containing medium at 37° C. plus a 5% CO₂ humidified atmosphere. The cells were then added with PBS or 15 μg/ml of rHSP90α in the absence or presence of 10 μg/ml of control IgG or the tested anti-HSP90α antibody for another 24-h incubation. The treated cells were then fixed with 3% paraformaldehyde and blocked with the blocking solution provided in the Duolink in situ PLA kit (Olink Bioscience, Uppsala, Sweden). Furthermore, the cell samples were incubated overnight at 4° C. with anti-CD91 antibody (1:80, cat. #550495, BD Biosciences, San Jose, CA, USA) mixed with anti-HSP90α antibody (1:80, cat. #AHP-1339, AbD Serotec, Raleigh, NC, USA) or anti-IKKα antibody (1:80, cat. #3285, Epitomics Co., Burlingame, CA, USA). After washed trice with Tris-buffered saline plus 0.05% Tween 20, the cell samples were incubated with PLA probes for the subsequent ligation and amplification procedure according to the manufacturer's instructions for the Duolink in situ PLA kit. Finally, nuclei were counterstained with 4′,6′-diamidino-2-phenylindole (DAPI; Sigma-Aldrich). Images were photographed and analyzed using Leica TCS SP5 II confocal microscope and LAS AF Lite 4.0 software (Leica, Wetzlar, Germany).

The target in assay [2] is T2, VGSDEEEEKK
T2 construct: HSP90α a.a
T2 peptide: VGSDEEEEKK
The experiment in a line: peptide-scanning ELISA on plates coated with 10-a.a. peptides [b]. The text has this:
(§1) At first, the domain scanning strategy was used to roughly delineate the HSP90α region responsible for the binding with our prepared antibodies. The above-mentioned full-length HSP90α and its 3 truncated fragments were employed to coat 96-well ELISA plates for assaying the binding activities of the tested mouse monoclonal antibodies. […] Therefore, in peptide scanning strategy, a 132 peptide library was synthesized by Mimotopes Pty. Ltd. (Melbourne, Victoria, Australia), consisting of a series of 10-a.a. peptides offset by 2 a.a. to span the sequence of the a.a. […] This series of peptides were used to coat 96-well ELISA plates for assaying the binding activities of the tested antibodies. […] These peptides were subjected to ELISA as described above.
A general note: An ELISA detects its analyte on a solid surface through an enzyme-linked reagent.

The target in assay [3] is T3, EDVGSDEEEE
T3 construct: HSP90α a.a
T3 peptide: EDVGSDEEEE
The assay is described as above.
Description: as §1

Assay [4] concerns the target T4, EDKEEEKEKE
T4 construct: HSP90α a.a
T4 peptide: EDKEEEKEKE
The assay is described as above.
Description: as §1

Assay [5] concerns the target T5, DKEVSDDEAE
T5 construct: HSP90α a.a
T5 peptide: DKEVSDDEAE
The assay is described as above.
Description: as §1

Assay [6] deals with T6, EIEDVGSDEE
T6 construct: HSP90α a.a
T6 peptide: EIEDVGSDEE
Described as above.
Description: as §1

The target of assay [7] is T7, KPEIEDVGSD
T7 construct: HSP90α a.a
T7 peptide: KPEIEDVGSD
The assay is described as above.
Description: as §1

Assay [8] concerns the target T8, recombinant 732-amino acid full-length human HSP90α (rHSP90α; PeproTech) (human, UniProt P07900 1-732, limits assumed).
T8 construct: Bought protein used as immunogen, ELISA coat (12.5 ng/ml), Biacore analyte and cell stimulus; also called recombinant human HSP90α; eHSP90α
In words: SPR, Biacore T200, fitted to a 1:1 interaction model [b]. As for the experimental part:
(§2) To measure the HSP90α-binding characteristics of anti-HSP90α antibodies, binding kinetic assays were performed using Biacore T200 (Cytiva Co., Marlborough, MA, USA). The interested anti-HSP90α antibodies were applied onto Protein A Series S sensor chips as ligands to achieve approximately 3000˜5000 response units. A series of concentrations of rHSP90α (1.5625-100 nM) in HBS-EP+ buffer were injected over the chip surface. The association was monitored for 60 sec, and the final dissociation time was 1500 sec.

Assay [9] has as its target T8, recombinant 732-amino acid full-length …. In words: SPR, Biacore T200; antibody captured on Protein A chip, rHSP90α 1.5625-100 nM as analyte; 1:1 model. As for the experimental part:
as §2
For orientation: SPR reads the build-up and loss of mass on a sensor chip optically.

For assay [10], the target named is T9, KEKEEKESED
T9 construct: HSP90α a.a
T9 peptide: KEKEEKESED
The experiment in a line: peptide-scanning ELISA on plates coated with 10-a.a. peptides [c].
Description: as §1

For assay [11], the target named is T10, EVSDDEAEEK
T10 construct: HSP90α a.a
T10 peptide: EVSDDEAEEK
Described as above.
Description: as §1

In assay [12] the target is T11, SDEEEEKKDG
T11 construct: HSP90α a.a
T11 peptide: SDEEEEKKDG
The assay is described as above.
Description: as §1

The target in assay [13] is T12, a.a. 630~732.
T12 construct: not shown: left out of the chain
The experiment in a line: domain-scanning ELISA on plates coated with full-length or truncated His-tagged HSP90α [a].
Description: as §1
As listed in the above Table 3, HH01 antibody is capable of binding specifically to the human HSP90α with novel amino acid (a.a.) sequences in the complementarity determining regions (CDRs), and therefore we intended to identify which region of HSP90α was bound by HH01 antibody. In a preliminary study, we employed the strategy of HSP90α domain scanning to delineate the HSP90α region responsible for the binding with Clone-2 antibody. […] Subsequently, the binding activities of Clone-2 antibody to the full-length and truncated HSP90α were assayed by a conventional ELISA method.

Positions count from the first letter of the chain named. Numbers in names are those of the source.

T1 sequence (Q07954 20-4544 limits assumed): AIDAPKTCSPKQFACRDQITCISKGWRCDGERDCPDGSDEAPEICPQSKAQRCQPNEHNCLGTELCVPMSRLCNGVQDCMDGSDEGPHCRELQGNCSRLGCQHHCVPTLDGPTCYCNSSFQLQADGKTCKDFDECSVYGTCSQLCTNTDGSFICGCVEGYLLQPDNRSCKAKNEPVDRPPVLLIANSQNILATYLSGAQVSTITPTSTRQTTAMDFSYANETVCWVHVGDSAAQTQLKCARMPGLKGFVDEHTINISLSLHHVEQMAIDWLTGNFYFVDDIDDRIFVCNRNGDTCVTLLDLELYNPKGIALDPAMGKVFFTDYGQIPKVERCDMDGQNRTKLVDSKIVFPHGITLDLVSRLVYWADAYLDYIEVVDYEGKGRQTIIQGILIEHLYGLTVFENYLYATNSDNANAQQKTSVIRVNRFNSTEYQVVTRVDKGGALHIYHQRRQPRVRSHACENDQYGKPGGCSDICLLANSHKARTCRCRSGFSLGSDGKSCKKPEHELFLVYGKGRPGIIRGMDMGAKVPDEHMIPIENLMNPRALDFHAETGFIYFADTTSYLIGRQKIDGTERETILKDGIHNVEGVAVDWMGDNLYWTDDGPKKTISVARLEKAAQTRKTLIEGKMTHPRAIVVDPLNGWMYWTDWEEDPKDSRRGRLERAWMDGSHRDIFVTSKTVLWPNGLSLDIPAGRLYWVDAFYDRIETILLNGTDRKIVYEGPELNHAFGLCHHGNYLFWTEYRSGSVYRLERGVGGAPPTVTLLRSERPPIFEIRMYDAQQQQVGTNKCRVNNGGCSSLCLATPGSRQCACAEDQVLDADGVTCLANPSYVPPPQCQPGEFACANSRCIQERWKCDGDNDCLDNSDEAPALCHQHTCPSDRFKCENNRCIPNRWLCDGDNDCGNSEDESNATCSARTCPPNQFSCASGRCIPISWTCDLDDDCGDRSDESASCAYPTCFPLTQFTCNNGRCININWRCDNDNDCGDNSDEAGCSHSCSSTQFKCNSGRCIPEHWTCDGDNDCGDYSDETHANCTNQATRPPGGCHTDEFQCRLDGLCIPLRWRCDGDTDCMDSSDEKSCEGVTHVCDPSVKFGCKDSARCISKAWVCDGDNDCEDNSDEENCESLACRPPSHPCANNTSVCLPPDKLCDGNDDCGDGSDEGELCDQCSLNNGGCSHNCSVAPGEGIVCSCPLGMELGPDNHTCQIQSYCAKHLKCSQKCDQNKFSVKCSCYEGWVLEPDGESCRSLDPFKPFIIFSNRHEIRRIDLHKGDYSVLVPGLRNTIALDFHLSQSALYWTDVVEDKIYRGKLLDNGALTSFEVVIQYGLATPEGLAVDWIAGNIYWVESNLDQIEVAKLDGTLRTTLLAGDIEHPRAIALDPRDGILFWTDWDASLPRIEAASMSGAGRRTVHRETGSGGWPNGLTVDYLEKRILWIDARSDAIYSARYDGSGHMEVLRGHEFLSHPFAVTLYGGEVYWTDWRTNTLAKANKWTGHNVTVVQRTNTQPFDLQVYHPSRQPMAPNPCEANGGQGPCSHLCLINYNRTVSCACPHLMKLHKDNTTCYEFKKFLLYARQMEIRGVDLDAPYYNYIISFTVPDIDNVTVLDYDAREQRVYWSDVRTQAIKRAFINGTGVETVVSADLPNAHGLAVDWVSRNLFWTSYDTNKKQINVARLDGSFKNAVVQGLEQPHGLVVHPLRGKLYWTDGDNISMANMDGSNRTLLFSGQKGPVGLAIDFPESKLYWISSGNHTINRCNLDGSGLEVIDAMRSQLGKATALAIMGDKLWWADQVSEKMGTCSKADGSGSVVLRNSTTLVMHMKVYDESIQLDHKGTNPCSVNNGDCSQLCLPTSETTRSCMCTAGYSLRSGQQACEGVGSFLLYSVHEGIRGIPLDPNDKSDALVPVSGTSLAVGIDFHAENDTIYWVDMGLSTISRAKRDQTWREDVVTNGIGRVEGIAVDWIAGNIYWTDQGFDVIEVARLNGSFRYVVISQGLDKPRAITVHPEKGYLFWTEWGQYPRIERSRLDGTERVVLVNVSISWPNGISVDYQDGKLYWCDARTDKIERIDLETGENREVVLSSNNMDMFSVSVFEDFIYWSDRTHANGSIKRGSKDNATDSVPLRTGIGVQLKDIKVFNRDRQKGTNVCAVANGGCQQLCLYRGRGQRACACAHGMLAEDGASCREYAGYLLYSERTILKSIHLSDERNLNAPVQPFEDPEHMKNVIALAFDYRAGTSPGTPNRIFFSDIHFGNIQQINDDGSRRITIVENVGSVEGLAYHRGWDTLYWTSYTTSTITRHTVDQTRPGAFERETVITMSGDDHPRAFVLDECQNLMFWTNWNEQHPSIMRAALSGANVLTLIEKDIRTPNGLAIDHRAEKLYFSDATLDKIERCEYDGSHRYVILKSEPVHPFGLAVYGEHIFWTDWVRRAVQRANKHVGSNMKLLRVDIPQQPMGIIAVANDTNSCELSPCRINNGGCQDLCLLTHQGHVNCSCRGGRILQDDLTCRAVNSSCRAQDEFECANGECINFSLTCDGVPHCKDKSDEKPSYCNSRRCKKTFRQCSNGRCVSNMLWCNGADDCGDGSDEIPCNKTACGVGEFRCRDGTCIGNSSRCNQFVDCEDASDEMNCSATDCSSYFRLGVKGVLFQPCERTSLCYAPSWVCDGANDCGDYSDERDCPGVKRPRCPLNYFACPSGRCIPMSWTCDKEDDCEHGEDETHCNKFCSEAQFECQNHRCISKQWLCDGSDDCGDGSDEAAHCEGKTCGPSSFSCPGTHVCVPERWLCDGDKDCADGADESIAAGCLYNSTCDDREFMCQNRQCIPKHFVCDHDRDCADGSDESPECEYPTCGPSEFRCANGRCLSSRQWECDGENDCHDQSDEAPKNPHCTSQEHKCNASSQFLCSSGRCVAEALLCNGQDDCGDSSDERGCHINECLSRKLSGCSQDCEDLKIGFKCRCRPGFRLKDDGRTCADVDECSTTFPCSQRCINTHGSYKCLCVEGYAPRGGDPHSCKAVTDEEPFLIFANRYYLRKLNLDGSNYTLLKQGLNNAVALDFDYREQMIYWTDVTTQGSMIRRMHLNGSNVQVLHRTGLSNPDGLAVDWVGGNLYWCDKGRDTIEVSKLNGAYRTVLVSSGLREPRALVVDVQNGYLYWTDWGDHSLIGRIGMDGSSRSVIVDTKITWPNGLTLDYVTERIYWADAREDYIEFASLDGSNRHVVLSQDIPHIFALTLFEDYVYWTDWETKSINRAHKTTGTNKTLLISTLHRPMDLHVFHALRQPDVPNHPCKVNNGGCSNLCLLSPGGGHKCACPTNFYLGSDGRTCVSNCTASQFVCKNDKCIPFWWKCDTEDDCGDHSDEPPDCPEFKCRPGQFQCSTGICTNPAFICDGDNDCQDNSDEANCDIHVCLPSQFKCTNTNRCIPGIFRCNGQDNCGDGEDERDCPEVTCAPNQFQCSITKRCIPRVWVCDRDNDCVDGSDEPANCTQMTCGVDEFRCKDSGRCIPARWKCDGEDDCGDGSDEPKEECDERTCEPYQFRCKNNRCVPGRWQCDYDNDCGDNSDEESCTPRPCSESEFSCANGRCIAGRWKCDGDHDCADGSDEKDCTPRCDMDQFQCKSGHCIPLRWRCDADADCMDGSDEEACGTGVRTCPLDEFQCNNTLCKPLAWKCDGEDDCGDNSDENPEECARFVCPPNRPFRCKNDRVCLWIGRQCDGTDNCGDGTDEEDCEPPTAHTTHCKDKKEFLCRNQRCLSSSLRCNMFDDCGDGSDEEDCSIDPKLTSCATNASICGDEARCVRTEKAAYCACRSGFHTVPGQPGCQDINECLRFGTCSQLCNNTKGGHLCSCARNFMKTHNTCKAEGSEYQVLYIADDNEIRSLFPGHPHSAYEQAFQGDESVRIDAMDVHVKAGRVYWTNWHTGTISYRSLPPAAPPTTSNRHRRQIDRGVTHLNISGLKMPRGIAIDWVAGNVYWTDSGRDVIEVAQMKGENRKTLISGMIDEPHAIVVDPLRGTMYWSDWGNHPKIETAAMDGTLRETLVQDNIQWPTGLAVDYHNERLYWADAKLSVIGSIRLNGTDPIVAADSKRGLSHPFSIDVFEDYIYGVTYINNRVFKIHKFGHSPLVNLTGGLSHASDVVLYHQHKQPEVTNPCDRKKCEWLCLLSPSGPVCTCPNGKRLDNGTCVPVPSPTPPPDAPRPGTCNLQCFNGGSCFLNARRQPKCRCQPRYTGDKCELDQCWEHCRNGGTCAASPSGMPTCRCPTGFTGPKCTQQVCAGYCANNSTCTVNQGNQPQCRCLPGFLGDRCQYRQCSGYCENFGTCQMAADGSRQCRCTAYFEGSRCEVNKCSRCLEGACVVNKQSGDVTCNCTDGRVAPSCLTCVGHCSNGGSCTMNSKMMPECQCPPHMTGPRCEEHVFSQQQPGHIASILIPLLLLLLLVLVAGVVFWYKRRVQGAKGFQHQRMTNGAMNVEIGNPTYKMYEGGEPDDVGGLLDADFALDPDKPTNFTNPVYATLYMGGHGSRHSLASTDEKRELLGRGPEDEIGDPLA
T12 sequence (chain, as listed by the source limits assumed): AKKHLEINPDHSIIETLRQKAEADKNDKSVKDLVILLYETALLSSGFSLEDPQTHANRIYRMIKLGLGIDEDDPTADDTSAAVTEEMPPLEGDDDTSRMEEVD

B1: IKKα (enzyme, human, UniProt O15111 1-745, looked up)
single chain: MERPPGLRPGAGGPWEMRERLGTGGFGNVCLYQHRELDLKIAIKSCRLELSTKNRERWCHEIQIMKKLNHANVVKACDVPEELNILIHDVPLLAMEYCSGGDLRKLLNKPENCCGLKESQILSLLSDIGSGIRYLHENKIIHRDLKPENIVLQDVGGKIIHKIIDLGYAKDVDQGSLCTSFVGTLQYLAPELFENKPYTATVDYWSFGTMVFECIAGYRPFLHHLQPFTWHEKIKKKDPKCIFACEEMSGEVRFSSHLPQPNSLCSLVVEPMENWLQLMLNWDPQQRGGPVDLTLKQPRCFVLMDHILNLKIVHILNMTSAKIISFLLPPDESLHSLQSRIERETGINTGSQELLSETGISLDPRKPASQCVLDGVRGCDSYMVYLFDKSKTVYEGPFASRSLSDCVNYIVQDSKIQLPIIQLRKVWAEAVHYVSGLKEDYSRLFQGQRAAMLSLLRYNANLTKMKNTLISASQQLKAKLEFFHKSIQLDLERYSEQMTYGISSEKMLKAWKEMEEKAIHYAEVGVIGYLEDQIMSLHAEIMELQKSPYGRRQGDLMESLEQRAIDLYKQLKHRPSDHSYSDSTEMVKIIVHTVQSQDRVLKELFGHLSKLLGCKQKIIDLLPKVEVALSNIKEADNTVMFMQGKRQKEIWHLLKIACTQSSARSLVGSSLEGAVTPQTSAWLPPTSAEHDHSLSCVVTPQDGETSAQMIEENLNCLGHLSTIIHEANEEQGNSMMNLDWSWLTE
notes: endogenous, in cells; partner of CD91 in the proximity ligation assay
For B1, in assay [1], the binding result is recorded as “binds”.

B2: Clone-2-chimera anti-HSP90α antibody (antibody, V domains shown)
VH: EVQVVESGGGLVQPKGSLKLSCAASGFTFKTYAMNWVRQAPGKGLEWVARIRSKSRNYATYYADSVKDRFTISRDDSQFMFYLQMNNLKTEDTAMYYCVVGGSGFDYWGQGTTLTVSS
VL: DVLMTQTPLSLPVSLGDQASISCRSSQSIVHSNGNTYLEWYLQKPGQSPKLLIYKVSNRFSGVPDRFSGSGSGTDFTLSISRVEAGDLGVYYCFQGSHVPWTFGGGTKLEIK
notes: Clone-2 VH and VL joined to human IgG1 constant region (pFUSEss-CHIg-hG1e1; Fc with mutations at Q250T, E356D, M358L, L428M) and human κ constant region (pFUSE2ss-CLIg-hk); expressed in ExpiCHO cells
Consider B2, for which the binding result in [2], in [3], in [4], in [5], in assay [6] and in assay [7] was “no binding” in each case. Moreover, the koff in [8] turned out to be 6.7e-05 s⁻¹. Moreover, the kon in assay [8] stood at 711000 M⁻¹ s⁻¹. Besides, the dissociation constant (Kd) in [9] is 0.094 nM.

B3: HH01 anti-HSP90α antibody (Clone-2-hA) (antibody, V domains shown)
VH: B2 VH with V4L, K15G, K19R, K43Q, Q78K, F79N, M80Q, K89R, M95V
VL: B2 VL with L3V, K50Q, S79T, R82S, G86E
notes: expressed in ExpiCHO cells; also called HH01 antibody
B3: the binding result in assay [10], in assay [11] and in assay [12] was “no binding” each time. Moreover, in assay [8], the koff stood at 0.000137 s⁻¹. Besides, the association rate constant (kon) in assay [8] was 729000 M⁻¹ s⁻¹. In addition, the Kd in assay [9] was found to be 0.187 nM.

B4: Clone-2 anti-HSP90α antibody (mouse monoclonal) (antibody, V domains shown)
VH: B2 VH
VL: B2 VL
notes: Mouse hybridoma antibody, IgG2b isotype with κ light chains; First tested as culture supernatant, then purified; also called Clone-2 antibody; parental Clone-2
B4: the binding result in assay [13] is given as “no binding”.

One may read the koff as the rate constant with which the complex falls apart. What is called kon is the rate constant with which the complex forms. By Kd is commonly meant the equilibrium constant for the complex coming apart.

Values taken from patent US20250333486A1 (NATIONAL HEALTH RESEARCH INSTITUTES, published 2025).
